Laboratory results: US20240376204A1

Target: human PVRIG expressed on cells (human) (UniProt Q6DKI7)
Experiment: cell-based or functional assay

Sequence of human PVRIG expressed on cells (human) (Q6DKI7 41-326 limits assumed, form in doubt): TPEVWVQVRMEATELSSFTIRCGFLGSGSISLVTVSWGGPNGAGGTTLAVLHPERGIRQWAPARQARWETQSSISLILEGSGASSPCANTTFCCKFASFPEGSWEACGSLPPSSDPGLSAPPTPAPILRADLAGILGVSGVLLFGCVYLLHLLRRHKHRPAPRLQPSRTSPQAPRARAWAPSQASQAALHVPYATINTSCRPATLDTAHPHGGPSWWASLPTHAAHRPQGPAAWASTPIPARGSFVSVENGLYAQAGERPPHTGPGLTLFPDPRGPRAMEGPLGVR

IFNγ, mixed lymphocyte reaction, 20 nM antibody: 74 pg/mL | IFNγ, mixed lymphocyte reaction, 100 nM antibody: 89 pg/mL
Substance: hIgG4 isotype control (antibody)
Killing activity (%) of NK92 on K562, 4 nM antibody: 11.2% | Killing activity (%) of NK92 on K562, 20 nM antibody: 11.7% | Killing activity (%) of NK92 on K562, 100 nM antibody: 9.2%
